Laboratory results taken from publication PMC9870903, “Structural mechanism of BRD4-NUT and p300 bipartite interaction in propagating aberrant gene transcription in chromatin in NUT carcinoma” (Nature Communications, 2023).
Like-named read-outs stand apart in the source and are kept apart here.

How the values were obtained:
[1] = molecular target: p300 TAZ2 domain (residues 1723–1812) (UniProt Q09472); assay: NMR titration; 1H-15N HSQC of 15N-TAZ2 (50 μM); NUT fragment or peptide titrated from 7.8 μM to 1000 μM; 200 mM phosphate buffer pH 6.3; overlays at TAZ2/NUT molar ratio 1:3; single-site binding model
[2] = molecular target: p300 TAZ2 domain (residues 1723–1812) (UniProt Q09472); assay: as above; remark: listed apart in the source
[3] = molecular target: the molecule itself; assay: SEC; Superdex 200 Increase 10/300 GL in PBS, 0.3 ml/min; samples 0.8 mM; MBP-TAZ2/His-F1c in 1:1 mix ratio; calibrated with protein standards

With “NUT fragment of residues 377–418 (as added in NMR) (from UniProt Q86Y26 377-418) (domain or fragment)” the Kd [1] was 32 µM.

“NUT fragment of residues 419–470 (as added in NMR) (from UniProt Q86Y26 419-470) (domain or fragment)” was tested, and the Kd [1] was 36 µM.

For GMYPDPGLLSYINELC [F1c peptide (residues 403–418)], the Kd [2] was 115 µM.

Molecule FLADLLSPEKQRDPLALIEE [F1c peptide (residues 435–454)] has a Kd [2] of 958 µM.

B1: His-F1c (residues 346–592) (domain or fragment, UniProt Q86Y26 346-592, looked up)
chain: RRQRKAQRPPAPEAPKEIPPEAVKEYVDIMEWLVGTHLATGESDGKQEEEGQQQEEEGMYPDPGLLSYINELCSQKVFVSKVEAVIHPQFLADLLSPEKQRDPLALIEELEQEEGLTLAQLVQKRLMALEEEEDAEAPPSFSGAQLDSSPSGSVEDEDGDGRLRPSPGLQGAGGAACLGKVSSSGKRAREVHGGQEQALDSPRGMHRDGNTLPSPSSWDLQPELAAPQGTPGPLGVERRGSGKVINQ
notes: also called free His-F1c; source: purified; not shown: His, N-terminal, kept
With B1 the “stoichiometry N” value [3] was 5.
